Test results taken from the supplement of paper PMC9112550, “Optimization of the antimicrobial peptide Bac7 by deep mutational scanning” (BMC Biology, 2022).

These sequences were tested on Escherichia coli TOP10 (assay: shrunken log2 fold change of peptide-encoding DNA abundance (4.5 h post-induction vs induction); higher = less antimicrobial activity (less host growth inhibition)). Settings: time post-induction: 4.5 h; library: site-saturation at positions 5, 18, 19, 20.
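Also: peptides expressed intracellularly from a pBAD plasmid library in pooled LB shake-flask culture, induced with 0.3% L-arabinose, DNA abundance read by NGS, three biological replicates, DESeq2 with apeglm shrinkage.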

Sequence | shrunken log2 fold change
RRIRRRPPRLPRPRPRPDRQPRP | -0.114
RRIRRRPPRLPRPRPRPDSDPRP | 0.021
RRIRRRPPRLPRPRPRPDSLPRP | 0.0868
RRIRRRPPRLPRPRPRPDSVPRP | 7.52e-05
RRIRRRPPRLPRPRPRPDTVPRP | 0.0777
RRIRRRPPRLPRPRPRPDVQPRP | -0.0867
RRIRRRPPRLPRPRPRPDWCPRP | 0.201
RRIRRRPPRLPRPRPRPDWDPRP | -0.0829
RRIRRRPPRLPRPRPRPDWPPRP | 0.556
RRIRRRPPRLPRPRPRPDWVPRP | 0.037
RRIRRRPPRLPRPRPRPDYKPRP | -0.284
RRIRRRPPRLPRPRPRPDYLPRP | 0.152
RRIRRRPPRLPRPRPRPEAGPRP | 0.731
RRIRRRPPRLPRPRPRPEAKPRP | 4.76
RRIRRRPPRLPRPRPRPECCPRP | 0.566
RRIRRRPPRLPRPRPRPECGPRP | 0.938
RRIRRRPPRLPRPRPRPEENPRP | 0.157
RRIRRRPPRLPRPRPRPEEWPRP | -0.00804
RRIRRRPPRLPRPRPRPEFSPRP | 0.0744
RRIRRRPPRLPRPRPRPEGKPRP | 0.0207
RRIRRRPPRLPRPRPRPEGYPRP | 0.202
RRIRRRPPRLPRPRPRPEHHPRP | 0.202
RRIRRRPPRLPRPRPRPEHYPRP | 0.0555
RRIRRRPPRLPRPRPRPEKMPRP | 0.296
RRIRRRPPRLPRPRPRPELKPRP | 0.254

Sequence | shrunken log2 fold change
RRIRRRPPRLPRPRPRPEMMPRP | 0.345
RRIRRRPPRLPRPRPRPENQPRP | 0.368
RRIRRRPPRLPRPRPRPEPFPRP | -0.0448
RRIRRRPPRLPRPRPRPEQPPRP | 0.389
RRIRRRPPRLPRPRPRPEQSPRP | 0.353
RRIRRRPPRLPRPRPRPERCPRP | 0.322
RRIRRRPPRLPRPRPRPERKPRP | 0.0556
RRIRRRPPRLPRPRPRPETGPRP | 0.304
RRIRRRPPRLPRPRPRPETSPRP | 0.4
RRIRRRPPRLPRPRPRPEVIPRP | -0.0658
RRIRRRPPRLPRPRPRPEVVPRP | 0.472
RRIRRRPPRLPRPRPRPEWKPRP | 0.0796
RRIRRRPPRLPRPRPRPEWRPRP | 0.639
RRIRRRPPRLPRPRPRPEWSPRP | 0.274
RRIRRRPPRLPRPRPRPFALPRP | -0.00461
RRIRRRPPRLPRPRPRPFATPRP | 0.814
RRIRRRPPRLPRPRPRPFCFPRP | 0.218
RRIRRRPPRLPRPRPRPFCLPRP | 0.194
RRIRRRPPRLPRPRPRPFCTPRP | -0.13
RRIRRRPPRLPRPRPRPFDCPRP | 0.264
RRIRRRPPRLPRPRPRPFFLPRP | 0.0467
RRIRRRPPRLPRPRPRPFHKPRP | 0.0306
RRIRRRPPRLPRPRPRPFIGPRP | -0.25
RRIRRRPPRLPRPRPRPFLSPRP | 0.128
RRIRRRPPRLPRPRPRPFMKPRP | -0.213

Sequence | shrunken log2 fold change
RRIRRRPPRLPRPRPRPFNCPRP | -0.301
RRIRRRPPRLPRPRPRPFQIPRP | -0.325
RRIRRRPPRLPRPRPRPFQNPRP | 0.0537
RRIRRRPPRLPRPRPRPFRHPRP | -0.212
RRIRRRPPRLPRPRPRPFTCPRP | -0.0792
RRIRRRPPRLPRPRPRPFTRPRP | -0.0292
RRIRRRPPRLPRPRPRPFVHPRP | 0.0512
RRIRRRPPRLPRPRPRPFWRPRP | 0.0251
RRIRRRPPRLPRPRPRPFWTPRP | 0.00443
RRIRRRPPRLPRPRPRPGAFPRP | 0.539
RRIRRRPPRLPRPRPRPGAQPRP | 0.352
RRIRRRPPRLPRPRPRPGASPRP | 0.665
RRIRRRPPRLPRPRPRPGCPPRP | 0.414
RRIRRRPPRLPRPRPRPGCQPRP | -0.176
RRIRRRPPRLPRPRPRPGHHPRP | -0.139
RRIRRRPPRLPRPRPRPGHWPRP | 0.0797
RRIRRRPPRLPRPRPRPGIKPRP | -0.291
RRIRRRPPRLPRPRPRPGKCPRP | -0.283
RRIRRRPPRLPRPRPRPGKSPRP | 0.0256
RRIRRRPPRLPRPRPRPGLHPRP | 0.0196
RRIRRRPPRLPRPRPRPGMKPRP | -0.133
RRIRRRPPRLPRPRPRPGMLPRP | 0.0899
RRIRRRPPRLPRPRPRPGRVPRP | 0.593
RRIRRRPPRLPRPRPRPGSQPRP | -0.0144
RRIRRRPPRLPRPRPRPGSTPRP | 0.1

Sequence | shrunken log2 fold change
RRIRRRPPRLPRPRPRPGVDPRP | 0.31
RRIRRRPPRLPRPRPRPGVVPRP | 0.281
RRIRRRPPRLPRPRPRPGWRPRP | 0.425
RRIRRRPPRLPRPRPRPGWSPRP | 0.472
RRIRRRPPRLPRPRPRPGYQPRP | 0.0538
RRIRRRPPRLPRPRPRPHAAPRP | 0.837
RRIRRRPPRLPRPRPRPHANPRP | 0.275
RRIRRRPPRLPRPRPRPHCMPRP | -0.329
RRIRRRPPRLPRPRPRPHDLPRP | 0.22
RRIRRRPPRLPRPRPRPHDNPRP | -0.13
RRIRRRPPRLPRPRPRPHEYPRP | -0.0758
RRIRRRPPRLPRPRPRPHFIPRP | -0.0325
RRIRRRPPRLPRPRPRPHGRPRP | 0.0549
RRIRRRPPRLPRPRPRPHHIPRP | -0.637
RRIRRRPPRLPRPRPRPHMSPRP | -0.0996
RRIRRRPPRLPRPRPRPHNTPRP | -0.115
RRIRRRPPRLPRPRPRPHQKPRP | 0.474
RRIRRRPPRLPRPRPRPHRAPRP | 0.243
RRIRRRPPRLPRPRPRPHSLPRP | -0.113
RRIRRRPPRLPRPRPRPHTEPRP | -0.0233
RRIRRRPPRLPRPRPRPHTSPRP | -0.0729
RRIRRRPPRLPRPRPRPHYMPRP | -0.126
RRIRRRPPRLPRPRPRPICQPRP | 0.133
RRIRRRPPRLPRPRPRPIEDPRP | -0.089
RRIRRRPPRLPRPRPRPIEGPRP | 0.0101

Sequence | shrunken log2 fold change
RRIRRRPPRLPRPRPRPIENPRP | -0.0103
RRIRRRPPRLPRPRPRPIESPRP | 0.0332
RRIRRRPPRLPRPRPRPIETPRP | -0.00874
RRIRRRPPRLPRPRPRPIEVPRP | 0.0048
RRIRRRPPRLPRPRPRPIEWPRP | 0.375
RRIRRRPPRLPRPRPRPIEYPRP | -0.124
RRIRRRPPRLPRPRPRPIFEPRP | 0.0525
RRIRRRPPRLPRPRPRPIFNPRP | -0.124
RRIRRRPPRLPRPRPRPIFWPRP | 0.821
RRIRRRPPRLPRPRPRPIHSPRP | 0.0881
RRIRRRPPRLPRPRPRPIIIPRP | 0.0103
RRIRRRPPRLPRPRPRPIINPRP | -0.207
RRIRRRPPRLPRPRPRPIKAPRP | 0.0673
RRIRRRPPRLPRPRPRPIKPPRP | 0.0148
RRIRRRPPRLPRPRPRPIKYPRP | 0.0338
RRIRRRPPRLPRPRPRPILPPRP | 0.177
RRIRRRPPRLPRPRPRPILRPRP | 0.691
RRIRRRPPRLPRPRPRPINNPRP | -0.407
RRIRRRPPRLPRPRPRPIRFPRP | 0.0747
RRIRRRPPRLPRPRPRPISDPRP | 0.136
RRIRRRPPRLPRPRPRPISLPRP | -0.224
RRIRRRPPRLPRPRPRPIWHPRP | 0.176
RRIRRRPPRLPRPRPRPIWQPRP | 0.0175
RRIRRRPPRLPRPRPRPIWSPRP | -0.000832
RRIRRRPPRLPRPRPRPIYVPRP | -0.114

Sequence | shrunken log2 fold change
RRIRRRPPRLPRPRPRPKCYPRP | 0.00463
RRIRRRPPRLPRPRPRPKDCPRP | 0.132
RRIRRRPPRLPRPRPRPKDFPRP | -0.123
RRIRRRPPRLPRPRPRPKEKPRP | -0.00936
RRIRRRPPRLPRPRPRPKEPPRP | 0.293
RRIRRRPPRLPRPRPRPKEVPRP | 0.195
RRIRRRPPRLPRPRPRPKFLPRP | 0.133
RRIRRRPPRLPRPRPRPKGEPRP | 0.0115
RRIRRRPPRLPRPRPRPKLNPRP | 0.101
RRIRRRPPRLPRPRPRPKMVPRP | 0.105
RRIRRRPPRLPRPRPRPKNRPRP | -0.0177
RRIRRRPPRLPRPRPRPKNYPRP | -0.177
RRIRRRPPRLPRPRPRPKPTPRP | 0.426
RRIRRRPPRLPRPRPRPKPYPRP | -0.033
RRIRRRPPRLPRPRPRPKQQPRP | 0.0775
RRIRRRPPRLPRPRPRPKQRPRP | 0.288
RRIRRRPPRLPRPRPRPKQYPRP | -0.215
RRIRRRPPRLPRPRPRPKVAPRP | 0.0861
RRIRRRPPRLPRPRPRPKVFPRP | -0.00912
RRIRRRPPRLPRPRPRPKVKPRP | -0.0947
RRIRRRPPRLPRPRPRPKVVPRP | 0.0343
RRIRRRPPRLPRPRPRPKYRPRP | -0.000605
RRIRRRPPRLPRPRPRPKYVPRP | -0.194
RRIRRRPPRLPRPRPRPLAPPRP | 0.399
RRIRRRPPRLPRPRPRPLAWPRP | 0.226
